For 7 sequences, protein production results are on record in a protein production outcome set (Wang et al. 2014).

The data set can be described thus: label from the status in PepcDB records.
For “MKKKMITALGVSAIILTNFVGSTYADSKIGVSVTAPYNKNQIAEWLEMHAKPLKTTNPNAPFNDLKPFKNMVGSASIVGLGEATHGAHEVFTMKNRIVNYLVSEKGFTNLVLEEGWDRALELDRYVLTGEGNPSQHLSPVFKTKEMLDLLNWIRQYNANPKHKSKVRIIGMDIQSVNENVYNNIIEYVKRTNSKLVPRIEEKIKGLIPVTKDMNTFESLTKEEKEKYISDAKQISAVLEENKSYLNGKSKEFAWIKQNARIIEQFTTMLTSPPDKPSDLFLKHDIAMYENAKWTEEHLGKTIVWGHNGHVSKTNMLPFVYPKVAGQYLAEYYGKRYVSIGTSVYEGQYNVKNSDGEFGPYGILKSDDPNSYNYIFGQVKKDQFFIDLRKANGVTKNWLNEQHPIFAGVTTEGPGIPKTVDISLGKAFDILVQIQKVSPSQLHQLEHHHHHH”, the protein production result is reported as “failed”.
As for “MKKLAIAISTILLSGAAYAGNTADVELFNADDNDVNIFQMSPAVGNDADVLIRNSDENEVDIYQMGRHNDAVVRVRNGSDDNDLMIDQDGRHNRAVLKARLGSDENDFAIEQDGRLNLGKVIADDSDNNNGLIDQRGRRNEAYINFDSASDNSNNKIVQRGRRNEGEISVMGGSNNGTLKIRQKGHDNDSKIHVYGGSGNEALTKINGDDNTTYTAFYAGASDNDTTILMKNDSLDNTVYAVVVGGSFNEADVTIDSSNDNFVSVAQWGDSSMAEVTLENGSNDNWIMINQTNNDMATVTADNSSYNAVVITQL”, the protein production entry is “failed”.
For “MKKLIVDLDGTLTQANTSDYRNVLPRLDVIEQLREYHQLGFEIVISTARNMRTYEGNVGKINIHTLPIITEWLDKHQVPYDEILVGKPWCGHDGFYIDDRAVRPSEFASMNLEEIHQLFEKEKSCS” the value was “not failed”; for “MKKLKRAYKMEINPTDEQKSKIHQTIGVSRFIYNFYIARNKEIYEKEGKFVSGMDFSKWLNNEYIPNNQEMKWIKEVSSKATKQAIMNGDKSFRDFFKKAKGFPRFKKKKNQDVKAYFPKNNKTDWTIERHRVKIPTLGWVRLKEFGYIPTNSIVKSGTVSQKADRYYVSILVEETDIKISNSNIGIKIFNHNNEGIGIDLGIKDFAICSNGNKFKNINKTSTIKKVEKNLKREQRKLSRKYESLKIRNKKEKGGNVTRQNIQKQIVKVQKLHQRLTNIRTDYINKIVSSIIKQKPSYITIEDLNVKGMMKNKHLSKAIASQKFFEFKTKLMSKCKQNDVELRIVDRFYPSSKTCSQCGEIKKDLKLSDRVYKCSCGLVIDRDLNASINLRNAKEYKIALEHHHHHH”, “not failed”.
Regarding “MKKNYMKALVVATTLAIPFATYSTPALAALKVEANQSVAAASDRTYDTEIKIYKDQKDEPSMVSQYIKDPKVTIAAGKKIVTVTMQDSDYFQYLRIEDKNQPGVFHDVKVLSEDKRKNGTKVVQFEIGEFEKKHNMQMHILIPAIGYDHKYQVQFEIKDPTVGNKETEKPDDNSNSGNTETDNPVDNQNMITDNKLRELVNKKVFNRKDLNTPITKEDLLQVKDLFLNTNEILDYSALKYMPNLKSLTVANAKIKDPSFFANLKQLNHLALRGNEFADVTPLVKMDNLESLDLSNNKITNVAPLTEMKNVKSLFLSGNQIEDVTALAKMEQLDYLNLANNKITNVAPLSNLKNVTYLTLAGNQIEDIKPLYTLPLKDLVLTRNKVKDLSGIDQLNQLQELWIGKNEITDVTPLSKMTQLKILNLPNNELKDITPLSSLVNLQKLDLEANYISDLSPVSNLKKLVFLSFVANEIRDVRPVIELSKTAYINVQNQKVFLEETEVNKEVKVPIYEKDGEISTKIRLKSDNGTYSNGVVKWSTPGEKVYEFGVKDPFADTGIFFTGSVIQNVVESKDGNTSKEDEKTEVVEFKDVPKGHWSEEAINYLAKEKLFIGYGNGEFGFGDNITRGQVALLIQRYLKLENNLEQKTAFTDTKGNMYETAIDAVVQAGIMTGYGNGMFRPDGVLTRYEMSVVLQRVFQLKENENSAENFKDVPNGHWAKGYVKALVDNKISKGDGEGNFLGDNFVTREQYAQFLYNAIKK”, the protein production result is reported as “failed”.
With “MKKPKFLSLQEDDTFEKMRQSRLQKNKRKRDSGLNVFEEVVKDLTYGYMKIGDGDEIYGKHRKKKRVSKAKELEMAMTLEALKKDQEKGDIVAKNHSWQAAISRAAGIKIHDDPKRLKKRIHKETKMREKNTEKWKERVDVQQKFRAEKQQKRSENVIDRIQQKKMRKIAKREKKLLRPGY”, the protein production result is recorded as “failed”.
With “MKKPVHDMRQHIIDVARSLMTNKGYTAVGLAEVLITAGVPKGSFYYYFKSKEEFGQALLEEYFSEYLGRVDALMARPGTGAERLLAYFMYWSETQGTDLPEGKCLVVKLGAEVCDLSEDMRCVLEVGTAKIIQRISACVEMGVSDGSIHPEGDHQGFAESLYQLWLGASLLVKVNKSTESFDKALNMTKRLLK” the entry was “failed”.
